Source: US20100035361A1 (published 2010)
Where a chain is given by its changes, count along the chain named. Non-standard residues stand in square brackets, D forms with d. No end group written: not given here. Aib = CC(C)(N)C(=O)O

B1: anti-Her2 two helix binder (SEQ ID NO. 23) (designed binder)
chain: VENKCNKEMRNAYWEIALLPNLNNQQKRAFIRSLYDDPX
modifications: C^1 = hindered cysteine (penicillamine) at 39, disulfide linkage to natural Cys 5
B2: anti-Her2 two helix binder (SEQ ID NO. 12), peptide with a covalent bridge between two E^1 residues (designed binder)
chain: B1 chain with E8X, E15X, X39C
modifications: E^1 = O-allyl glutamic acid at 8 and 15 joined by a covalent bridge (ring closing metathesis)
notes: Cys at 5 and 39
B3: anti-Her2 two helix binder (SEQ ID NO. 20) (designed binder)
chain: B1 chain with C5X, X39C
modifications: C^2 = extended cysteine (homocysteine) at 5, disulfide linkage to natural Cys 39
B4: anti-Her2 two helix binder (SEQ ID NO. 19) (designed binder)
chain: B1 chain with C5X, X39C
modifications: C^1 = hindered cysteine (penicillamine) at 5, disulfide linkage to natural Cys 39

Assays:
[1] = target: T1, extracellular domain of the Her2/neu antigen as a conjugate with the Fc region of human IgG (Fc-Her2), R&D … (human, UniProt P04626 23-652); assay: binding analysis (method not given; SPR per Example 2)
T1 construct: extracellular domain; Bought reagent; not shown: Fc region of human IgG

[2] = target: T1, extracellular domain of the Her2/neu …; assay: SPR (Biacore) relative binding, about 5 ug/ml peptide
Experimental: Binding interactions between the binder and the Her2/neu antigen was measured in vitro using surface plasmon resonance (SPR) detection on a BIAcore™ 3000 instrument (Piscataway, N.J.). The extracellular domain of the Her2/neu antigen was obtained as a conjugate with the Fc region of human IgG (Fc-Her2) from R&D Systems and covalently attached to a CM-5 dextran-functionalized sensor chip (BIAcore™) pre-equilibrated with HBS-EP buffer (0.01M HEPES pH 7.4, 0.15M NaCl, 3 mM EDTA, 0.005% v/v surfactant P20) at 10 μL/min and subsequently activated with 1-ethyl-3-[3-dimethylaminopropyl]carbodiimide hydrochloride (EDC) and N-hydroxysuccinimide (NHS). The Fc-Her2 (5 μg/ml) in 10 mM sodium acetate (pH 5.5) was injected onto the activated sensor chip until the desired immobilization level was achieved (2 min). Residual activated groups on the sensor chip were blocked by injection of ethanolamine (1 M, pH 8.5). Any non-covalently bound conjugate was removed by repeated (n=5) washing with 2.5 M NaCl₂, 50 mM NaOH.
A second flow cell on the same sensor chip was treated identically, except with no Fc-Her2 immobilization, to serve as a control surface for refractive index changes and non-specific binding interactions with the sensor chip. Prior to the kinetic study, binding of the target analyte was tested on both surfaces and a surface stability experiment was performed to ensure adequate removal of the bound analyte and regeneration of the sensor chip following treatment with 2.5 M NaCl, 50 mM NaOH. SPR sensorgrams were analyzed using the BiaEval (BIAcore) software. The robustness of the kinetic model was determined by evaluation of the residuals and standard error for each of the calculated kinetic parameters, the “goodness of the fit” (χ2<10), and a direct comparison of the modeled sensorgrams to the experimental data.

Binder | binding result [1] | binding result [2]
VENKCNK[Aib]MRN[Aib]YWE[Aib]ALLPNLNNQQKRAFIRSLYDDPC-NH2 (designed binder, cysteine pairing not given here, Cys at 5 and 39) [anti-Her2 two helix binder (SEQ ID NO. 24)] | no binding | –
B1 | – | binds
B2 | – | binds
VENKCNKEMRNAYWEIALLPNLNNQQKRXFIRSLYDDPC (designed binder, X = alpha amino isobutyric acid (Aib) at 29, Cys at 5 and 39) [anti-Her2 two helix binder (SEQ ID NO. 27), peptide with Ala29Aib] | – | binds
B3 | – | binds
B4 | – | binds
VENKCNK[Aib]MRN[Aib]YWE[Aib]ALLPNLNNQ[Aib]KRA[Aib]IRS[Aib]YDDPC-NH2 (designed binder, cysteine pairing not given here, Cys at 5 and 39) [anti-Her2 two helix binder (SEQ ID NO. 26)] | no binding | –
VENKCNKEMRNAYWEIALLPNLNNQ[Aib]KRA[Aib]IRS[Aib]YDDPC-NH2 (designed binder, cysteine pairing not given here, Cys at 5 and 39) [anti-Her2 two helix binder (SEQ ID NO. 25)] | no binding | –
